According to article doi:10.1101/2023.10.16.562450 (bioRxiv, 2023):
Several values for one entry are separate records, joined by “and”; a condition that tells them apart may be missing. Equal values may be shown once.

How the values were obtained:
[1] = target: recombinant ZIKV sNS1 (full-length ZIKV NS1, residues 3-352, GZ02 strain) (Zika virus (GZ02 strain)); experiment: negative staining EM
[2] = target: recombinant ZIKV sNS1 (full-length ZIKV NS1, residues 3-352, GZ02 strain) (Zika virus, strain GZ02, UniProt A0A146CJG7, strain); experiment: cryo-EM structure
cell-surface ZIKV NS1 = cell-surface ZIKV NS1 (Zika virus, strain ; stand-in …, UniProt A0A146CJG7); experiment: flow cytometry on cells
ZIKV-derived sNS1 = ZIKV-derived sNS1 (Zika virus, strain ; stand-in …, UniProt A0A146CJG7); experiment: ELISA
DENV4 NS1 = DENV4 NS1 (Dengue virus 4, strain ; …, UniProt P09866); experiment: ELISA
Sequence of DENV4 NS1 (P09866 775-1126): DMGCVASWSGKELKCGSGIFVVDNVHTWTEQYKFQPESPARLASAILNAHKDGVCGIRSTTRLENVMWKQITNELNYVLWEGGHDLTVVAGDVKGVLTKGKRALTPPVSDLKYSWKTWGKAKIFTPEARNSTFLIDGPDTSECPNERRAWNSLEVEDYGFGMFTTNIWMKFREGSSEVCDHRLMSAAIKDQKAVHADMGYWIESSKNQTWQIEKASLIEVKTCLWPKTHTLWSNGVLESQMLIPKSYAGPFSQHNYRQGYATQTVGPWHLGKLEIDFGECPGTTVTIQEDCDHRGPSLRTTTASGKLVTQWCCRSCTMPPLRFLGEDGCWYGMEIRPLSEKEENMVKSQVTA

DENV2 NS1 = DENV2 NS1 (Dengue virus 2, strain ; …, UniProt P29990); experiment: ELISA
Sequence of DENV2 NS1 (P29990 776-1127): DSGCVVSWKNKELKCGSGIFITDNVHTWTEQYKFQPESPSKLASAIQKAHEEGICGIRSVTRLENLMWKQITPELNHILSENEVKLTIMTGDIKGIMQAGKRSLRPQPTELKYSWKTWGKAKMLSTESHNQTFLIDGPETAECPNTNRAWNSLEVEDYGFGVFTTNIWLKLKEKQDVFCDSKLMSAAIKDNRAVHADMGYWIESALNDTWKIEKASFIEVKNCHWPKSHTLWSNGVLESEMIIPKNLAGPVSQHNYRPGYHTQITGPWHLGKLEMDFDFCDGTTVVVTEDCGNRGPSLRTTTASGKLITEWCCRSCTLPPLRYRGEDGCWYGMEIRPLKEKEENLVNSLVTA

## recombinant ZIKV sNS1 (full-length ZIKV NS1, residues 3-352, GZ02 strain) (natural protein)
[1]
  stoichiometry N: 4

B1: Fab 14G5 (Fab, V domains shown)
VH: QVQLVQSGAEVKKPGESLKISCKGSGYSFTSYWIGWVRQMPGKGLEWMGIIYPGDSDTRYSPSFQGQVTMSADRSISTAYLQWSSLKASDTAMYYCARSNVDGSTDYWGQGTLVTVSS
VL: SYELTQPPSVSVSPGQTARITCSGDALPKQYAFWYQQKPGQAPVLVIYKDSERPSGIPERFSGSSSGTTVTLTISGVQAEDEADYYCQSADSSDTYVPYVFGTGTKVTVL
[2]
  stoichiometry N: 1 ratio Fab to NS1

B2: mAb 14G5 (IgG) (antibody, V domains shown)
VH: QVQLVQSGAEVKKPGESLKISCKGSGYSFTSYWIGWVRQMPGKGLEWMGIIYPGDSDTRYSPSFQGQVTMSADRSISTAYLQWSSLKASDTAMYYCARSNVDGSTDYWGQGTLVTVSS
VL: SYELTQPPSVSVSPGQTARITCSGDALPKQYAFWYQQKPGQAPVLVIYKDSERPSGIPERFSGSSSGTTVTLTISGVQAEDEADYYCQSADSSDTYVPYVFGTGTKVTVL
cell-surface ZIKV NS1
  percentage of cell staining at 10 ug/ml: 63%
ZIKV-derived sNS1
  Kd: 150 ± 30 pM

B3: Fab 3G2 (Fab, V domains shown)
VH: EVQLLESGGGLIQPGGSLRLSCAASGLTVSNNYMNWVRQAPGKGLEWVSIIYSSGSTYYADSVKGRFTISRDTRKNTLYLQMHSLRVEDTAVYYCARERGWLDYWGQGTLVTVSS
VL: VIWMTQSPSSLSASVGDRVTITCRASQSVSSHLNWYQQKPGKAPKLLIYAVSSLQSGVPSRFSGGDSGTDFTLTIASLQPEDFATYYCQQTYTIPRTFGQGTKVEIK
[2]
  stoichiometry N: 1 ratio Fab to NS1 and 4 copies of Fab fragment for each NS1 tetramer

B4: mAb 3G2 (IgG) (antibody, V domains shown)
VH: EVQLLESGGGLIQPGGSLRLSCAASGLTVSNNYMNWVRQAPGKGLEWVSIIYSSGSTYYADSVKGRFTISRDTRKNTLYLQMHSLRVEDTAVYYCARERGWLDYWGQGTLVTVSS
VL: VIWMTQSPSSLSASVGDRVTITCRASQSVSSHLNWYQQKPGKAPKLLIYAVSSLQSGVPSRFSGGDSGTDFTLTIASLQPEDFATYYCQQTYTIPRTFGQGTKVEIK
cell-surface ZIKV NS1
  percentage of cell staining at 10 ug/ml: 76%
ZIKV-derived sNS1
  Kd: 120 ± 20 pM

B5: Fab 4B8 (Fab, V domains shown)
VH: EVQLVESGGGLIQPGGSLRLSCAASGFTISSKYMSWVRQAPGKGLEWVSIIYSSGSTYYADSVKGRFTISRDISKNTLYLQMNSLRAEDTAVYYCASLGSGSAFGYWGQGTLVTVSS
VL: DIVMTQSPSSVSASVGDRVTITCRASQGISTWLAWYQQKPGKAPRLLIYAASSLQSGVPSRFSGSGSGTDFTLTISSLQPEDFATYYCQQANSFPFTFGPGTKVEIK
[2]
  stoichiometry N: 1 ratio Fab to NS1 and 4 copies of Fab fragment for each NS1 tetramer

B6: mAb 4B8 (IgG) (antibody, V domains shown)
VH: EVQLVESGGGLIQPGGSLRLSCAASGFTISSKYMSWVRQAPGKGLEWVSIIYSSGSTYYADSVKGRFTISRDISKNTLYLQMNSLRAEDTAVYYCASLGSGSAFGYWGQGTLVTVSS
VL: DIVMTQSPSSVSASVGDRVTITCRASQGISTWLAWYQQKPGKAPRLLIYAASSLQSGVPSRFSGSGSGTDFTLTISSLQPEDFATYYCQQANSFPFTFGPGTKVEIK
cell-surface ZIKV NS1
  percentage of cell staining at 10 ug/ml: 70%
ZIKV-derived sNS1
  Kd: 800 ± 330 pM

B7: Fab 4F10 (Fab, V domains shown)
VH: EVQLLESGPGLVKPSQTLSLTCTVSGGSISSGGYYWSWIRQHPGKGLEWIGYIYYSGSTYYNPSLKSRVAMSVDTSKNQFSLTLSSVTAADTAVYYCARAIDNFYDNSIWGQGTLVTVSS
VL: DIQMTQSPSSLSASVGDRVTIACRASQSITNFLNWYQQKPGKAPKLLIYAVSNLQSGVPSRFSGSGSGTDFTLTISSVRPEDFATYFCQQSYSPPYTFGQGTKVDIK
[2]
  stoichiometry N: 1 ratio Fab to NS1

B8: mAb 4F10 (IgG) (antibody, V domains shown)
VH: EVQLLESGPGLVKPSQTLSLTCTVSGGSISSGGYYWSWIRQHPGKGLEWIGYIYYSGSTYYNPSLKSRVAMSVDTSKNQFSLTLSSVTAADTAVYYCARAIDNFYDNSIWGQGTLVTVSS
VL: DIQMTQSPSSLSASVGDRVTIACRASQSITNFLNWYQQKPGKAPKLLIYAVSNLQSGVPSRFSGSGSGTDFTLTISSVRPEDFATYFCQQSYSPPYTFGQGTKVDIK
cell-surface ZIKV NS1
  percentage of cell staining at 10 ug/ml: 58%
ZIKV-derived sNS1
  Kd: 60 ± 10 pM
DENV4 NS1
  binding result: binds
DENV2 NS1
  binding result: binds

B9: Fab 2E11 (Fab, V domains shown)
VH: SVELIESGGGVVQPGRSLRLSCAASGFTFSNYAMHWVRQAPGKGLEWVAFISYDGSNKYYADSVKGRFTISRDNSKNTLSLQMNSLRAEDTALYYCARVFNGYEGDYWGQGTLVTVSS
VL: LPVLTQPPSVSVSPGQTARITCSGDALPKKYAYWYQQKSGQAPVLVIYEDSKRPSGIPERFSGSSSGTMATLTISGAQVEDEADYYCYSTDSSGNLYVFGTGTKVTVL
[2]
  stoichiometry N: 1 ratio Fab to NS1

B10: mAb 2E11 (IgG) (antibody, V domains shown)
VH: SVELIESGGGVVQPGRSLRLSCAASGFTFSNYAMHWVRQAPGKGLEWVAFISYDGSNKYYADSVKGRFTISRDNSKNTLSLQMNSLRAEDTALYYCARVFNGYEGDYWGQGTLVTVSS
VL: LPVLTQPPSVSVSPGQTARITCSGDALPKKYAYWYQQKSGQAPVLVIYEDSKRPSGIPERFSGSSSGTMATLTISGAQVEDEADYYCYSTDSSGNLYVFGTGTKVTVL
cell-surface ZIKV NS1
  percentage of cell staining at 10 ug/ml: 59%
ZIKV-derived sNS1
  Kd: 220 ± 40 pM
